This is an account of results in publication PMC3764169.

This experiment deals with αVβ3 integrin (human (endogenous in THP-1)) (UniProt P06756).
UniProt P06756, sequence (P06756 31-1048, chain 1 of 2): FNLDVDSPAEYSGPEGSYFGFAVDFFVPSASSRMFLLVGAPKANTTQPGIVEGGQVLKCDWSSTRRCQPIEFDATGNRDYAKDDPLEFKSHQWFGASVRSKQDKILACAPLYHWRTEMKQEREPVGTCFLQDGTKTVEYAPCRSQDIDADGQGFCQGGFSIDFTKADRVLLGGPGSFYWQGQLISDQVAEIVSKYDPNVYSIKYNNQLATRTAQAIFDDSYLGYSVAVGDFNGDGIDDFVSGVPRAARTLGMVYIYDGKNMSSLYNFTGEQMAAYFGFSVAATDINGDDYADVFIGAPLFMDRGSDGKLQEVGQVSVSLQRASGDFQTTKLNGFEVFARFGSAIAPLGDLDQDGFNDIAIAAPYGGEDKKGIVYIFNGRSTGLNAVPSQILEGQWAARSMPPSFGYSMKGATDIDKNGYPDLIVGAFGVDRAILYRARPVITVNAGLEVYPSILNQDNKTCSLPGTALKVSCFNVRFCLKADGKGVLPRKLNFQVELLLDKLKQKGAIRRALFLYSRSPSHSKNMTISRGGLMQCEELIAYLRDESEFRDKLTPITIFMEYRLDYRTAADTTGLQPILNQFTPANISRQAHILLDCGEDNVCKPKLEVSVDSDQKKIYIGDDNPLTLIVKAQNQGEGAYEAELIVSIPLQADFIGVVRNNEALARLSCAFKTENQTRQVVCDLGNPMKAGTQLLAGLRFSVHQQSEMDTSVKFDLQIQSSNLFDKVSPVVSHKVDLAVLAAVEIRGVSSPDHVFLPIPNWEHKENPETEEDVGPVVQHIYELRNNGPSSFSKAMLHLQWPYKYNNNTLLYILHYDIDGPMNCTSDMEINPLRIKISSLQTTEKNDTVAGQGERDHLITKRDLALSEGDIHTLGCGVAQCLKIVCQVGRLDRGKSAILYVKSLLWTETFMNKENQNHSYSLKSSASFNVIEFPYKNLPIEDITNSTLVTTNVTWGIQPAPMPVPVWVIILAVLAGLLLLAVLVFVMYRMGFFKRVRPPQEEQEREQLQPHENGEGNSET
UniProt P06756, sequence (P05106 27-788, chain 2 of 2, further chain): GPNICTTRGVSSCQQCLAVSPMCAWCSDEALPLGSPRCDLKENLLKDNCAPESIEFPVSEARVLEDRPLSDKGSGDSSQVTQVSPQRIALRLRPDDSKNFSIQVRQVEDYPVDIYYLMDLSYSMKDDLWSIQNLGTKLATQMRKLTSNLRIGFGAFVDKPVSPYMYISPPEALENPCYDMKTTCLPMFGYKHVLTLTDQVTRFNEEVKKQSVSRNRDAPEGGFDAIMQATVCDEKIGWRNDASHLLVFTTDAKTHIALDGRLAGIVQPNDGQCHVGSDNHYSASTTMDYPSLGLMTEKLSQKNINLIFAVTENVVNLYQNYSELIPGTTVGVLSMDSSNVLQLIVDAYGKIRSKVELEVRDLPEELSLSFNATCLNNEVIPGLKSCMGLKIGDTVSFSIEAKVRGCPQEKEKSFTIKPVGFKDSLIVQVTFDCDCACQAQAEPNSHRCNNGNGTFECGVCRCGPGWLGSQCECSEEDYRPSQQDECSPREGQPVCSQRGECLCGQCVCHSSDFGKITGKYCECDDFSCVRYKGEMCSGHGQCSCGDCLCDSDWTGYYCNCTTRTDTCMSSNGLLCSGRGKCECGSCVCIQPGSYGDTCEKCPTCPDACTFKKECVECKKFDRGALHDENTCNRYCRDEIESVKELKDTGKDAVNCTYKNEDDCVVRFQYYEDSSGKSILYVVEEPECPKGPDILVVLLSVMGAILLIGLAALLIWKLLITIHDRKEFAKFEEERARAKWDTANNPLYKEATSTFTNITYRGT

In the case of Lunasin (peptide), the decrease in free intracellular Ca^2+ (Fluo-4, live-cell confocal imaging) in LPS-induced THP-1 macrophages after lunasin (1 µM), over 6.67 min (400 frames); resurgence after 30 min was 34.6%.
